Experiment: soluble on expression in E. coli; label from the status in PepcDB or PDB records

Row | Sequence | soluble on expression in E. coli
1 | SLLNVPAGKDLPEDIYVVIEIPANADPIKYEIDKESGALFVDRFMSTAMFYPCNYGYINHTLSLDGDPVDVLVPTPYPLQPGSVTRCRPVGVLKMTDEAGEDAKLVAVPHSKLSKEYDHIKDVNDLPELLKAQIAHFFEHYKDLEKGKWVKVEGWENAEAAKAEIVASFERAKNK | soluble
2 | SLMHHALHIKNGIVIDPKNGVKAEKMDIFVKNGKIVEESEVKGEDVKVIDANNKLVVAGGVDMHAHIAGSKINTGRTMRPEEMRVVRNIAGKFRAAVGRVLLTSPAIGYEYAKMGYTISIEAAQPPIGSPHTHEELDAIPMIDKAALPVFGNWHFVLKYVAEKDMEKLKAFIAWAIERTKGFGVKVVNPGGVGAWMYGGNVTSLDDQVPGFNVTPREIITSLVKATEELQLNHSVHLHCNRLGVPGNYETTVESIKLVDGIRNDARQVLHVTHVQFNAYAGDSWRTVASGAEAIAKTVNSMDNVTIDMGQPIFGHATAMTGDAPFQFTLHKLTGSRWSNKDSEIEGGAGIVPIAYLPKNPVHALQWAIGLELGLLIDSDKVVLTTDYPNGGPFTEYPYIMAMLMSKKMREGELERVSPFVQKASNLPAIDTEKTLEEVIHMTRSLPARVLGLPQKGHLGVGADADIAIYDLNPLDVDTSNDFEKVYKAFKTAVYTIKDGQILVKDGELVDEYWGRTYWVDATGKADMEAIKDDLNEMFSKYYTVELQNYGVEERWLRKPERIVI | not soluble
3 | SLNKIKAFYNLPMAYYRLSNFLKHYIDDNTIIICIGTDRCIGDCLGPMVGTMLKEKFFPLNVYGTISEPIHALNIDKKLYKIKKDHTNSTIIGIDACLGDTENIGEIQVRDYAIHPGKGVGKSLPDVGEVSIVGIVDSCESSELFTNRNIRLNLIFEMSKVIVQTIIHSYYLHKTFSDSIFPDSASTLK | soluble
4 | SLPHPAPGPADAEDPRLAEVMAAVRSSRRYQSVAPETVRRLAANALVASRGDLAEAVKRTKRSLHEVFGAYLPSPPKYDALLRQLRDAVDAGDDEAVRAVLHRAMSTHASTRERLPILEEFYREVFARLDAPTSVRDLACGMNPLAAPWMPGSDAFTYHASDIDTRLTEFLAAALETLGVAHDVRVRDLMTGVGEVATDVTLLLKTLPCIEAQGRGQGWDLIDAIRSPVVVVSFPTKSLGQRSKGMFNTYSANFGAWLENRPHDVEQVEFRNELVYFVRKNA | soluble
5 | SLPVINGAHVISMKNYTLVSDAYGEKGVKKVYEDEYLICENLKSFNKNLHPNFNFACFCLFDGHNGKNTAMFLKRNLAQELSNSFLEMQNTYDSSLPIPDHFIKISVNNTCKRIDERIAQEYPNSRDGATCVIVLIKDEYAYIINIGDSCAYLCRYLNNSNQAIELVDIHKPWVITEKERIIKHGGTIENGRVNDIIDVTRSFGDLSLKKYGLLCTGTFKKFKINSDDNFIILGTDGFFGSVDINYVINEITNLSKKEERLVNVEKKKTVFDAKSICNIMVEHAIVDKKSQDNVTVVLIKFLHKKGNSSTTTTTTEIRLLTKPERKLSWLLPPLSNN | soluble
6 | SLRKERARSAEEPWTQNQQKLLELALQQYPRGSSDCWDKIARCVPSKSKEDCIARYKLLV | soluble
7 | SLRQDELKELERAIAEITEIAEGFGLDFYPMRYEICPADILYTFGAYGMPTRFSHWSFGKQFYKMKLHYDLGLSKIYELVINSDPCYAFLLDTNTLIQNKLIVAHVLAHSDFFKNNVRFSNTKRDMVESMAATAERIKHYEHQYGKLEVEKFLDAVLAIQEHIDPSLLRPKLSWTWEDTEVYEEEEPPKTSTPYDDLWSLDERDKLKTPPRKKRRKFPPQPEKDVLLFIEEYSRELEDWQRDILTMMREEMLYFWPQLETKIMNEG | not soluble
8 | SLRTYFAQRAEMEQLAATEAMLRRQIADLEEQQVKLADPAYIAAQARERLGFVMPGDIPFQVQLPSTPLAPPQPGSDAATATNNEPWYTALWHTIADDPHLPPAAPPAPEPGRPGPLPPASPNPEQPGG | soluble
9 | SLSFSSKVKSEVCRYDDYSKGEAIAVLSAVMKASGTLALEGNRKISFKIITENPAIARLIFKLLKKYFDIHTEIMMKKSNSLKKNNVYVVSITEDMGVRELLKTVGVMKNEDGIVTLSYDIPEFVVKDDESRKMYIRGAFLGGGSVSNPEKMYHLEFVTHNEDYASNLRDLINTYGLNSKVIQRKNSYVVYIKEGEQVVDLLNIIGAHSSLLELENIRIIKEMRNNINRLVNCETANLSKTVNASVRQIESIKLIEKQIGLSRLPENLREVAKLRLNYPDESLKELGKMLEPPVGKSGVNHRLRKIEKIAEELRKEGR | soluble
10 | SLSPKFKTIIIDDIPSCVEDIKKIILKDKRFEVVATASNGLEGVDQIRLHNPDLVLTDIEMPVMNGFDMVIGLREMLDLTPTIIFITVYDQYAIQAIRCSAFDFILKTGLDQELPMALNEYVKKRAAKQPLLSKQIESLIKSFERNKQIIIRSNICDNFINPMDIIYISTSKNHANSIYLKNGECIATNQSLSHFEKILSETDFFRLNKSNIININFIKEIRKETNAFRRKYVYMKYTEADIKLAIPPGKYAKLFDFIEENSSEG | not soluble
11 | SLSTVELSGTVVKQGYLAKQGHKRKNWKVRRFVLRKDPAFLHYYDPSKEENRPVGGFSLRGSLVSALEDNGVPTGVKGNVQGNLFKVITKDDTHYYIQASSKAERAEWIEAIKKLT | soluble
12 | SLTDSAAPRLHVQALSADCAEAARRWAERLGLPLEADDEAEFAVQVGEQGLQVLQLGADSPGPVRVDFVEGASAHRRKFGGGSGQMIAKAVGVQPGIRPRVLDATAGLGQDGFVLASLGCEVTLVERQPLIAALLEDGLERARRDPDVAPIAARMRLLGGNSADLMRAWDGEAPQVIYLDPMFPHRDKSALVKKEMRLFRPLVGDDLDAPALLQAALALASHRVVVKRPRKAPIIEGPKPGYSLEGKSSRYDIYPKKALGK | soluble
13 | SLVGTPNLLTLDEADATWTLIKDKVIEEHFGPNAVAVPFLSDAACYDLLGVLVKQSRPAHTRLALPGRQGRRALKPVGPLPSLLEQAGSEGAFAHCTREYSPNGRAERAYEETRMLDGQPCKIRLHMGDLRKKVAFLLLPPGQVSLQQTLPWLRSTHSIYVIYQVFSCSWLQLGLTSTAREPQLLRLLRSLPVAFSCLKFSLQSKGVLGPQKPLTKDPLPHGANWVRPNLSIMPPLAPTSASADTTEAADVPPPVPAPPTPPPQEGPEDKPTRFSYKGRNPFWRGPQILSENWLFSPRSPPPGAQGGGPRDPDGHSMSLPLLQGLSSEFDSDD | not soluble
14 | SLVVAIDPGHGGQDSGAVGPTGKLEKNVTLAIGRELARQINATPGMKAYMTRDSDVFIPLPMRAQRARAAKADIFISIHADAADNRAATGSSVYVLSTRGASSQRARWLADKENAADLVGGVRLQKAEPTLANVLLDLAQSGYMKASEDAADHVLGSLKRVANNHKSEVEHANFAVLRTSDMPAMLVETAFISNAYEERRLVDPAFQRQLAAAVLEGVITFFTNQPPPGTLFALRAQAEPATTGGSVITSTH | not soluble
15 | SLYCIEEKIEKALGIKEASLVLKNCNIVNVFSSEIIRGDLAIDGDTIIGIGKYKGKTEIDLSNKYVAPGFIDSHVHIESSMVSPKEFARAVISRGTTTIIVDPHEIANVCGMDGIKYMMEETKNMPLDVFFMLSSCVPATSFETSGAVLKAEDLKELIDSDRVLGLGEMMNYPGVLSREEEVLNKLKLAGSYNKIVDGHAPSVRGNELNAYNLAGIKTDHECSSIEEMNEKIRNGMYIAIREGSAAKNLDILIKGVNAKNERRIMFCADDRHPDDILKSGHMDNCVRRAIYNGIENTAAIRMASINAAECYKLERVGAIAPSYKADLVVLEDLKDVKVNMVIKSGEVVFKDNKHLKDMGSKSDITKVSNTVNIKKVSEENLELKLDTDVCSIISVALNSISTKNVKRKVNLSNGIFKCELNYGINKVAVIERHKKSGSIGIGLVENFGLKRGAIASTVAHDSHNIIVLGNNDEDMVKAVNEIERVGGGITISLDGKIIETLELEIAGLMSNKSMEFVAERVSKMINICHNTLGVNKDIQPFMTLAFLALPVIPEIRITDKGVFDVVNFKFL | soluble
16 | SMAAAAVVQIPAGATFLETFKKSFVDVPIDAEKGNAISTAEFLEAAESLTTMFDVLGSIAFSPVKTDMLGNVEKIRKRMLAAPLESQNIQDLVRNELKTKSHTATEGLLWLVRGLEFTCIALSKNIGSTEELADSFRGSYRVTLKPHHSFLVKPIFSAAMSACPYRKDFYAKLGDDEQKVQEELREYLVALDKIVNILKRFLESKEAKW | soluble
